From the DeepSol protein solubility set

Experiment: soluble on expression in E. coli; label from the status in PepcDB or PDB records

Sequence	soluble on expression in E. coli
MKRLDKKEALDLLHHASLTELGEMAYKRKLELHPEKITTFVVDRNINYTNVCCIDCSFCAFYRHHKEDDAYILSFEEIGKKIEELEAIGGTQILFQGGVHPKLKIEWYEELVSWIKEHYPNITVHGFSAVEIAYIAKASKISITEVLKRLQAKGLFSIPGAGAEVLSDRVRDIIAPNKCDTATWLEVHRQAHKIGMKSTATMMFGTVENDEEIIDHFEHLRKLQDETGGFRAFILWSFQSDNTALIQKHPEIMKQSSNKYLRLLALVRLYLDNFKNLQSSWVTQGSLIGQLALKFGANDLGSTMMEENVVSAAGASYRMNQDEMIRLIRSLGENPAKRNTAYEILERFLEHHHHHH	not soluble
MADLFNKHLKKATNRTKEKLLEGIGKAKATQDEVFDQHAANLNKQSKSCEKLHKDVKNYSSALRTLLSAEKQLRDTIRDAYEPEWPDREHLTAIFDNLDIQTNELEKTVCDDLPQTVTQYVNQFPDLKKKIEKRGRKLVDYDSAKNSFNSVKASSKKDNDPKLAKATMELQAAEQMYTEMNNELLEILPAVFDSRITFFVDTLQTLFNANSVYQTDASKFHKQIVMQLDKLGESMDYLRVARPEARALTPIDTTSLASSDAPATPDQNKSDNSSLRQTPSPSVLPSPVPAPMAKPRESVVSMANSTNPFDDDDAEHDKEATPTDVEEKFEAKVYPKLNAQQTAAAEQAIAAAKREKKEASNPFDDEDDESTEVEEAPKKKDPEPTPKPLDGITNEKRKTLYFVTSTHNYKAVDTDELSFEQGVQIKVIEANEDDQLDDGWRLGELEDGKRGVFPENFTKKV	not soluble
MEEKKALRNRIKKLLRSQPEQQRKEGSQRVADILFSLPEWNEAHAIGITISLPHEVQTELIISRGWEEGKQIAVPRVKKGTTQMTFYEIHSFSVLEDTFFGLREPKPSECRQIDGQELDLLLVPGVAFDQKGNRLGYGGGYYDRFLHSYKGKTIALAYSQQLVESVPTDERDERVQMIVTERGVYRLEHHHHHH	soluble
MIPVKFKGATFGRLVKLEFEILRLGELKIDDISEFNTKDIKLEIRATSSGIKLIGVWEGDISEVGEAIKRALDESMKLRERLLRKMRNKVERIRKTLTEMGFSEESIGYGDAIRFTKRIGEYEVAIVVSSRDDIVRVEVYGGNKKLLAPELEAFFESVDIEELEIYDVDEDGREERVVINLELPKTDEKPEKRIIEAVKVLENILMA	soluble
MKFWKKGLTAAALLAVAAVTLTACGGSSEKKATEKSEDGKTKLTVTTWNYDTTPEFEKLFRAFEAENPDITIEPVDIASDDYDTKVTTMLSSGDTTDILTMKNLLSYSNYALRNQLVDLTDHVKDLDIEPAKASYEMYEIDGKTYAQPYRTDFWVLYYNKKMFDEAGIAYPDNLTWDEYEALAKKLSKPEEQVYGAYQHTWRSTVQAIAAAQNNANLIEPKYNYMETYYDRALRMQKDQSQMDFGTAKSTKVTYQSQFENSKAAMMYMGSWYMGTLLTNIDDGKTNVEWGIAEIPQQEKGKATTFGSPTSFAINKNSKKQKAAQKFLDFASGKEGAKLLAEVGVVPSYKTDEIDKIYFARKGMPSDEVSQKAFNPDTINLEFPSDKNGAAIDKVLQEEHDLIMVGDEKPKDGIANMEKRVKAEID	not soluble
MVEARSRHEFVALQLRQRIMQRQYAVGESLPSESMLCAEFEVSRGPVRQALATLKNEGLIQLSQGKPAVVRSHDITQTLDTFTPFSQWARRTGRVAGSRTLEISRRRVSEPAASALGSAPDDFVVEVLRVRLLDGEPTMIERSTFTDRVGSLLFDFDIDTGSITDYLTSRGVRFESMEHVLDAVAATGVDAENLRIDPGSPLLRERRTSRDQNGDTFEYADDRYRPDLVAFSIVNARTIDPRLPSDDGNGA	not soluble
MAHHHHHHMNYAAVINGPFSSNNGNNHYSRLGYTPNGYGPQPNTTEQNPQMVPYQTFNSAAGQPVNVYQQIPPTSASRDPRTNIHIGSKLFVGQVPAMTTEEQLRPVFEPYGELLEVKIMRDPLGRSKGSAWVRYETNEMAMNAINALHEKHTVPPQTNPLRVQFATPNSVRHQQLQARYAVELKVPMNQYNFGGQMGGGTQQSGMVMLRSGASPNVVPPISANVGGRYMSAPFGGGPMESSSIMSGPYTSSANCFDGVNSSGNRRDLYSPLEQPQGTAPQLYQQQQQQQRGGFSSPVVTPPSVYNQASSTRQPTARNNNTKSGGGISMGSFESGHGMVNPNSNGAPTMANEMSTLDAGIALWEARNNNGLQGQEPREAAARVRSGERKEE	not soluble
SSQSISPMRSISENSLVAMDFSGQKSRVIENPTEALSVAVEEGLAWRKKGSLRLGTHGS	soluble
